According to patent US20240342207, “MODIFIED NUCLEIC ACID COMPOSITIONS AND ASSOCIATED METHODS FOR TREATMENT OF PHENYLKETONURIA” (BOARD OF REGENTS, THE UNIVERSITY OF TEXAS SYSTEM, published 2024):

T1: PAH (phenylalanine hydroxylase), wild type (Homo sapiens, UniProt P00439 P00439:1-452)
T1 sequence: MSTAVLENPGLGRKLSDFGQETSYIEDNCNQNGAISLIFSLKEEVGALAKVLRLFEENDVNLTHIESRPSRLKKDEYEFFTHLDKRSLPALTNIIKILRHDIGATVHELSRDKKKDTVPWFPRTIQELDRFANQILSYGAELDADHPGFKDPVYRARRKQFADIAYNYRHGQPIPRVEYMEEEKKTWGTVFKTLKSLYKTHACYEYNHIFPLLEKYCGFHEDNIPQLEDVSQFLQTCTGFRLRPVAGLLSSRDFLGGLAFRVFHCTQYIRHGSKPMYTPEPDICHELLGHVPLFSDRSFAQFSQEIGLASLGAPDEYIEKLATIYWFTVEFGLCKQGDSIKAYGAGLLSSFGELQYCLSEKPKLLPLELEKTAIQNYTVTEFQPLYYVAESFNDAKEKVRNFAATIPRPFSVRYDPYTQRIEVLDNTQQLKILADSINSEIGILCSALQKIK


Columns and labels:
[1] = target: T1, PAH (phenylalanine hydroxylase), wild …; assay: affinity similar to full-length HULC; conditions: tags: His-tag, pET-DEST42, E. coli BL21-CodonPlus (DE3)-RIPL, cobalt resin
[2] = target: T1, PAH (phenylalanine hydroxylase), wild …; assay: EMSA; 5 mM MgCl2, 100 mM KCl, 30 C; conditions: tags: His-tag, pET-DEST42, E. coli BL21-CodonPlus (DE3)-RIPL, cobalt resin, label: 32P
Experimental: RNA Electrophoretic Mobility Shift Assay (EMSA). The gel mobility shift assay was performed as previously described (42). Briefly, 500 ng recombinant His-tagged wild-type PAH or mutants were incubated with 0.035 μmol labeled probe in a RNA-protein binding buffer [(50 mM Tris-HCl 7.9, 10% glycerol, 100 mM KCl, 5 mM MgCl₂, 10 mM (3-ME, 0.1% NP40] for 30 min at 30° C. For cold RNA competition, 0.035 μmol radiolabeled RNA probes were first mixed with 7 μmol cold RNA competitors and then subjected to the gel shift assay.

[3] = target: T1, PAH (phenylalanine hydroxylase), wild …; assay: mutant mimic abolished interaction; conditions: tags: His-tag, pET-DEST42, E. coli BL21-CodonPlus (DE3)-RIPL, cobalt resin

Binder	binding result ([2]; stem-loop)	binding result [2]	other results
CAAAATGCATATGTATCTTTG (XNA, 2'-F at all nucleotides) [HULC mimic, 2'-F]			binding result [1]: binds
GGUGAGCUGCGUAUAGCUCGUC (ssRNA) [Pair 467-488 WT EMSA probe]	binds		
CCAAAAUGCAUAUGUAUCUUUGG (ssRNA) [HULC 180-202 WT EMSA probe]	binds		
CCAAAAUGCAUGUGUAUCUUUGG (ssRNA) [HULC 180-202 mutant EMSA probe]		no binding	
GGUGAGCUGCGUGUAGCUCGUC (ssRNA) [Pair 467-488 mutant EMSA probe]		no binding	
CAAAATGCATGTGTATCTTTG (XNA, 2'-F at all nucleotides) [HULC mutant mimic, 2'-F (A191G)]			binding result [3]: no binding
